Experimental findings from patent US20090117124A1 (Pfizer, published 2009) are described below.

For test [1], the target named is T1, human IgE (Human myeloma, azide free, Serotec, Cat. No. PHP008X2) (human, UniProt P01854 1-546). The test can be described thus: cell-based or functional assay.
The target in test [2] is T2, cynomolgus monkey IgE (in cynomolgus serum, Harlan Sera-Lab Ltd) (cynomolgus monkey).
T2 construct: Serum was the source of IgE; eight serum samples; also called cynomolgus IgE; Cyno 1 to Cyno 8 serum samples
The test can be described thus: capture ELISA, Test 2, Cyno 3. How it is done: (§1) Wells were washed once with 150 μL/well wash buffer (0.05% Tween-20, Sigma, Cat. No. P7949/TBS) then blocked with 150 μL/well 1% BSA (Sigma, Cat. No. A7030) in TBS for 2 hours at room temperature. Wells were washed twice with 150 μL wash buffer. 50 μL human (in-house donors) or cynomolgus serum (Harlan Sera-Lab Ltd, Loughborough) was added from neat to at least 1:16 dilution in 1% BSA/0.05% Tween-20/TBS diluent buffer. […] Wells were incubated for 2 hours at 25° C. before washing (3×150 μL wash buffer). […] Wells were incubated for 1 hour at 25° C. then washed (3×150 μL wash buffer). Streptavidin-HRP (Amersham Bioscience, Cat. No. RPN 1231) diluted 1:1000 in diluent buffer was added to all wells and incubated for 45 minutes at room temperature. Wells were washed (3×150 […] wash buffer). 50 μL OPD (Dako, Cat. No. S2045) was added to all wells and the color allowed to develop for 10 minutes before stopping the reaction with 50 μl 0.6M H₂SO₄ and the absorbance measured at 490 nm.

Test [3] deals with T2, cynomolgus monkey IgE (in cynomolgus …). Briefly: capture ELISA, Test 2, Cyno 4. How it is done: as §1
For orientation: In an ELISA, binding on a coated surface is turned into a signal by an enzyme label.

Test [4] has the same target. The test can be described thus: capture ELISA, Test 2, Cyno 6. How it is done:
as §1

Test [5] has the same target. Briefly: capture ELISA, Test 2, Cyno 7. How it is done: as §1
Test [6] shares this target. The test can be described thus: capture ELISA, Test 2, Cyno 8. How it is done: as §1
The target of test [7] is T3, free IgE in human serum (healthy volunteers, in-house donors) (human, UniProt P01854-1 1-428).
T3 construct: Kept apart from the bought myeloma IgE because it is native serum IgE of single donors; also called serum IgE
T3 sequence (P01854 other isoform, or with tags, fused parts or gaps): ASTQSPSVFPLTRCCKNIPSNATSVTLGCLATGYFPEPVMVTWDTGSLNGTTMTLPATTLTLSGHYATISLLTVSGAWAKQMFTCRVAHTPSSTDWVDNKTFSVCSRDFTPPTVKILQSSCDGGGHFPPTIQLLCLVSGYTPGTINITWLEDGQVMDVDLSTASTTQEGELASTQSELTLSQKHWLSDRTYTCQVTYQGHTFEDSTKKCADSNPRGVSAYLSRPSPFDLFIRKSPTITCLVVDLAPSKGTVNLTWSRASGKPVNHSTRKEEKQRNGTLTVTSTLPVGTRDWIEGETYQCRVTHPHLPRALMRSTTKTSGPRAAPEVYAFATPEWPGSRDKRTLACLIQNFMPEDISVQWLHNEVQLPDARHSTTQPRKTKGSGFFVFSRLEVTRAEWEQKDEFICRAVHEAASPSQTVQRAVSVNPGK
The test can be described thus: capture ELISA, Test 2, human serum. How it is done:
as §1

Test [8] deals with T3, free IgE in human serum (healthy …). Briefly: serum free IgE depletion ELISA; DIN 0155. How it is done:
(§2) The next day ELISA plates were washed 1× with 300 μL/well wash buffer (0.05% Tween-20, Sigma, Cat. No. P7949/TBS) then blocked with 150 μL/well 1% BSA (Sigma, Cat. No. A7030) in TBS for 1 hour at room temperature.

Test [9] has the same target. Briefly: serum free IgE depletion ELISA; DIN 0347. Here is the method:
as §2

The target is the same in test [10]. The test can be described thus: serum free IgE depletion ELISA; DIN 0591. Here is the method: as §2
Test [11] has the same target. Briefly: serum free IgE depletion ELISA; DIN 0649. Here is the method:
as §2

Test [12] concerns the target T1, human IgE (Human myeloma, azide free, …). The test can be described thus: inhibition of IgE binding to RBL-2H3 (FcεR1) cells. How it is done: RBL-2H3 (FcεR1) cells were cultured in MEM-Earles (Invitrogen Cat. No. 2109002) supplemented with 2 mM L-Glutamine (Sigma, Cat. No. G7513), 1 mg/mL Geneticin Liquid (Invitrogen Cat. No. 10131027) and 15% FBS (PAA Laboratories GmbH, Cat. No. A15-043). RBL-2H3 (FcεR1) cells were seeded into sterile 96-well plates (Costar, Fisher Scientific, Cat. No. TKY-521-090S) at 1×10⁵ cells/well and cultured overnight at 37° C., 5% CO₂ in a humidified atmosphere. The next day cells were washed 3× with 150 μL/well wash buffer (10% BSA, Sigma Cat. No A7030, in PBS, Sigma, Cat. No D8537). […] Cells were washed 3× with 150 μL/well wash buffer and then incubated with 50 μL/well streptavidin-HRP (Amersham Bioscience, Cat. No. RPN 1231) diluted 1:250, for 45 minutes. Cells were washed 3× with 150 μL/well wash buffer. 50 μL OPD (Dako, Cat. No. S2045) was added to all wells and the colour allowed to develop for 10 minutes before stopping the reaction with 50 μL 0.6M H₂SO₄ and the absorbance measured at 490 nm.

Test [13] deals with T3, free IgE in human serum (healthy …). Briefly: serum free IgE depletion ELISA; DIN 0011 experiment 2. How it is done: as §2
The target is the same in test [14]. Briefly: serum free IgE depletion ELISA; DIN 0321 experiment 2. Here is the method: as §2
The target is the same in test [15]. Briefly: serum free IgE depletion ELISA; DIN 0623 experiment 2. Here is the method: as §2
The target of test [16] is T1, human IgE (Human myeloma, azide free, …). Briefly: BIAcore 3000, antibody immobilised, full length human IgE injected. Here is the method: An immobilization binding response of 50-600 RU was obtained using CM5 sensor chips (BIAcore™) and 10 mM sodium acetate, pH 5.0 as immobilization buffer. The reference flow cell was activated (with EDC-NHS) and blocked (with ethanolamine) but no protein was immobilized. […] A regeneration step was included after the dissociation phase; the conditions used for the various antibodies are given in Table 17 below.
All sensorgrams were fitted locally using BIA evaluation software 4.1 (BIAcore™) and Scrubber software version 2.0 (BioLogic Software).
(In general: In SPR one partner is held on a chip, and binding of the other changes the refractive index at the surface.)

Substitutions are numbered along the chain they refer to. In names and notes the source's numbering stands.

T1 sequence (P01854 whole entry): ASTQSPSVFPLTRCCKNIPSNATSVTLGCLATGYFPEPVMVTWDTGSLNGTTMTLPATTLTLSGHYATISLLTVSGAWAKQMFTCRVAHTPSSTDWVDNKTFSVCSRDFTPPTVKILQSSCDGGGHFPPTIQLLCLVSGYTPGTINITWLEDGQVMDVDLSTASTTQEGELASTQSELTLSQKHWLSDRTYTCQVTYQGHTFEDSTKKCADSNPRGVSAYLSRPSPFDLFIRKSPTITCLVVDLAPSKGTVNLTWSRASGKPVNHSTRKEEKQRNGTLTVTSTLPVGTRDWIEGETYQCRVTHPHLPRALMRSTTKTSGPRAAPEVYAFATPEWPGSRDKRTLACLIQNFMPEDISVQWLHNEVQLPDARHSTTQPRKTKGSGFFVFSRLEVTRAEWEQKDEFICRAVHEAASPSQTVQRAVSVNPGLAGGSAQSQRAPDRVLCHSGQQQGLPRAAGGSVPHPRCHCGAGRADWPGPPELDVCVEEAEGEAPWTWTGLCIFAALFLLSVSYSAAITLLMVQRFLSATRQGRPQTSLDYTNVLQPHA

B1: 5.948.1 (recombinant) (antibody, human IgG2, kappa, V domains shown)
VH: QVQLVQSGAEVKKPGASVKVSCKASGYTFTSYDINWVRQATGQGLEWMGWMDPNSGNTGYAQKFQGRVTMTRNTSISTAYMELSSLRSEDTAVYYCARGHYDSDGYYSFSGMDVWGQGTTVTVSS
VL: not shown
notes: Human IgG2 kappa; leader omitted; Two batches were tested in some assays; also called recombinant 5.948.1; 5.948.1 - Batch 1 (762.8 µg/mL)
Broadly, the IC50 is the midpoint of a concentration-inhibition curve. By Kd is commonly meant the constant that tells how readily two partners part at equilibrium. What is called koff is the first-order rate constant of dissociation. As usually defined, the kon is the rate constant with which the complex forms. Turning to B1, the “IC50, inhibition of IgE-mediated degranulation (histamine release) of RBL-2H3 (FcεR1) cells; Batch 1” value in [1] was 0.36 µg/mL. Besides, in test [1], the “IC50, inhibition of IgE-mediated degranulation (histamine release) of RBL-2H3 (FcεR1) cells; Batch 2” value was determined as 0.123 µg/mL. The IgE concentration detected in test [2] stood at 309 ng/mL; in test [3], 38 ng/mL; in [4], 62 ng/mL; in test [5] it was 0 ng/mL; in test [6], 56 ng/mL; in test [7] it was 431 ng/mL. Besides, the “IC25 ng/mL” value in [8] came to 1.81 µg/mL; in [9] it was 4.92 µg/mL; in test [10] it was 2.35 µg/mL; in test [11] it was 1.95 µg/mL; in [13] it was 6.34 µg/mL; in [14], 7.9 µg/mL. The “IC25 ng/mL” value in test [15] is 4.13 µg/mL. The same molecule registered an IC50 in [12] of under 0.5 µg/mL. Further, the Kd in test [16] is 1.32 nM. In addition, the off-rate constant (koff) in [16] was 3.11e-05 s⁻¹. The same molecule came in with an on-rate (kon) in test [16] of 23600 M⁻¹ s⁻¹.

B2: 5.948.1 Hc-H100Y (antibody, human IgG2, kappa, V domains shown)
VH: B1 VH with H100Y
VL: not shown
notes: Human IgG2 kappa; leader omitted; also called 5.948.1 (H100Y); 5.948.1 H100Y
With B2, in [1], the “IC50, inhibition of IgE-mediated degranulation (histamine release) of RBL-2H3 (FcεR1) cells” value stood at 0.0121 µg/mL. The IgE concentration detected in test [2] came out at 178 ng/mL; in [3], 25 ng/mL; in [4] it was 39 ng/mL; in test [5], 0 ng/mL; in [6], 36 ng/mL; in test [7], 408 ng/mL. Moreover, the “IC25 ng/mL” value in [8] was determined as 0.34 µg/mL; in [9] it was 1.33 µg/mL; in [10], 0.55 µg/mL; in [11], 0.39 µg/mL; in test [13] it was 2.96 µg/mL; in test [14], 2.55 µg/mL. Further, in [15], the “IC25 ng/mL” value was 0.76 µg/mL. The molecule also gave a half-inhibitory concentration (IC50) in [12] of under 0.5 µg/mL. The Kd in [16] turned out to be 0.159 nM. Further, the dissociation rate constant (koff) in test [16] was determined as 2.42e-05 s⁻¹. In test [16], this molecule gave an association rate constant (kon) of 151000 M⁻¹ s⁻¹.
